Results as given in publication PMC11506342, “Ratiometric Electrochemical Detection of Interleukin-6 Using Electropolymerized Methylene Blue and a Multi-Walled Carbon-Nanotube-Modified Screen-Printed Carbon Electrode”.

Molecular target: interleukin-6 (IL-6) (UniProt P05231 30-212)
Assay: electrochemical aptasensor (DPV, [Fe(CN)6]3-/4- vs poly-methylene blue); aptamer immobilised on CS/MWCNT/pMB electrode, BSA blocked; 30 min incubation; linear 0.001-1000 ng/mL, LOD 0.54 pg/mL (not a Kd); 1 uM aptamer for immobilisation, IL-6 incubated 30 min with stirring; binding buffer, salt, pH and temperature not given in the material
Settings: protein: commercial; hairpin (stated)

interleukin-6 (IL-6), sequence (P05231 30-212): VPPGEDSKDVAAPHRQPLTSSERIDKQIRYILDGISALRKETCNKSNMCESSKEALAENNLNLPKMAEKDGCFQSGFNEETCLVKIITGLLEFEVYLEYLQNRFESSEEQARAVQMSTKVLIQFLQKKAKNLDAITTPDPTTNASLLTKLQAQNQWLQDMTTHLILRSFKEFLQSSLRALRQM

B1: IL-6 aptamer (NH2-Apt) (ssDNA)
DNA: GGTGGCAGGAGGACTATTTATTTGCTTTTCT
modifications: 3'-NH2
B1: binds.
